Test results: the supplement of paper PMC6757056
± gives the standard deviation of the averaged measurements.

B1: library; a variant is named by its letters at N, in order (parent)
chain: GCUGUCACCGGUGUAUUACCCUAGUGGUCGACCGGUCUGAUGAGUCUNNNNNNAGACGAAACAGC

Assays:
[1] = variants of: B1; experiment: FACS-Seq fitted mean relative fluorescence mCherry/BFP without ligand (log10 relative fluorescence); ligand: hypoxanthine (xanthine aptamer); higher = higher reporter protein expression; conditions: HEK293T, ligand present: no
Procedure, shortened: (§1)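 Sorting into 6 bins by mCherry/BFP followed 48 h of incubation with or without ligand. The cells were enriched HEK293T libraries lentivirally bearing an mCherry reporter with the ribozyme switch and an EF1α-BFP marker, and bin genomic DNA was PCR-amplified, barcoded and sequenced on MiSeq. Fluorescence is the fitted normal mean of the bin counts. Means were fitted on log10(mCherry/BFP), scaled to five spiked-in control ribozymes.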

[2] = variants of: B1; experiment: normalized RNA/DNA level with ligand (relative to sTRSVctl = 100) (log10 (% of sTRSVctl)); ligand: hypoxanthine (xanthine aptamer); higher = less ribozyme self-cleavage, higher mRNA level; conditions: ligand concentration (+) RNA-Seq: 5 mM, HEK293T, reporter: mCherry (pCS4076), ligand present: yes
Procedure, shortened: (§2)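 For each 6-well well, 4 µg of library plasmid encoding mCherry-linked ribozyme switches, or eGFP-linked ones in some ligand experiments, was transfected into HEK293T. Any ligand was added 1 h before transfection, and RNA was extracted with EDTA 72 h after it, then reverse-transcribed, amplified, barcoded and sequenced. RNA level was obtained by dividing RNA reads by DNA reads, normalizing to a spiked-in non-cleaving sequence or to the top sequences, then scaling and log-transforming. The top set was 25 sequences, scaling was ×100 with log10, and ≥100 DNA reads were required.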

[3] = variants of: B1; experiment: normalized RNA/DNA level without ligand (relative to sTRSVctl = 100) (log10 (% of sTRSVctl)); ligand: hypoxanthine (xanthine aptamer); higher = less ribozyme self-cleavage, higher mRNA level; conditions: HEK293T, reporter: mCherry (pCS4076), ligand present: no
Procedure, shortened: as §2

[4] = variants of: B1; experiment: FACS-Seq fitted mean relative fluorescence mCherry/BFP with ligand (log10 relative fluorescence); ligand: hypoxanthine (xanthine aptamer); ligand concentration (+) FACS-Seq: 5 mM; higher = higher reporter protein expression; conditions: HEK293T, ligand present: yes
Procedure, shortened: as §1

| Variant | FACS-Seq fitted mean (log10) [1] | normalized RNA/DNA level with ligand (log10) [2] | normalized RNA/DNA level without ligand (log10) [3] | FACS-Seq fitted mean (log10) [4] |
| --- | --- | --- | --- | --- |
| GCUGUCACCGGUGUAUUACCCUAGUGGUCGACCGGUCUGAUGAGUCUAGACCCAGACGAAACAGC [AGACCC] | 0.552 ± 0.035 | 1.94 ± 0.0097 | 1.92 ± 0.02 | 0.516 ± 0.11 |
| GCUGUCACCGGUGUAUUACCCUAGUGGUCGACCGGUCUGAUGAGUCUGGAAUUAGACGAAACAGC [GGAAUU] | 0.904 ± 0.078 | 1.955 ± 0.011 | 1.89 ± 0.045 | 0.815 ± 0.039 |
| GCUGUCACCGGUGUAUUACCCUAGUGGUCGACCGGUCUGAUGAGUCUAGACGGAGACGAAACAGC [AGACGG] | 0.689 ± 0.072 | 1.81 ± 0.044 | 1.3085 ± 0.0012 | 0.834 ± 0.073 |
| GCUGUCACCGGUGUAUUACCCUAGUGGUCGACCGGUCUGAUGAGUCUAGACGAAGACGAAACAGC [AGACGA] | 0.525 ± 0.066 | 1.95 ± 0.049 | 1.62 ± 0.025 | 0.546 ± 0.049 |
| GCUGUCACCGGUGUAUUACCCUAGUGGUCGACCGGUCUGAUGAGUCUAGAAUGAGACGAAACAGC [AGAAUG] | -0.0981 ± 0.019 | 1.86 ± 0.034 | 1.42 ± 0.058 | -0.0321 ± 0.076 |
| GCUGUCACCGGUGUAUUACCCUAGUGGUCGACCGGUCUGAUGAGUCUGGACCGAGACGAAACAGC [GGACCG] | 0.219 ± 0.056 | 1.97 ± 0.03 | 1.79 ± 0.0033 | 0.447 ± 0.027 |
| GCUGUCACCGGUGUAUUACCCUAGUGGUCGACCGGUCUGAUGAGUCUUGACGUAGACGAAACAGC [UGACGU] | -0.0405 ± 0.16 | 1.91 ± 0.021 | 1.57 ± 0.064 | 0.226 ± 0.05 |
| GCUGUCACCGGUGUAUUACCCUAGUGGUCGACCGGUCUGAUGAGUCUUGACGGAGACGAAACAGC [UGACGG] | 0.484 ± 0.018 | 1.9 ± 0.022 | 1.486 ± 0.01 | 0.646 ± 0.032 |
| GCUGUCACCGGUGUAUUACCCUAGUGGUCGACCGGUCUGAUGAGUCUUGACGAAGACGAAACAGC [UGACGA] | 0.285 ± 0.037 | 1.94 ± 0.023 | 1.581 ± 0.0051 | 0.593 ± 0.023 |
| GCUGUCACCGGUGUAUUACCCUAGUGGUCGACCGGUCUGAUGAGUCUGGACGAAGACGAAACAGC [GGACGA] | 0.478 ± 0.053 | 1.904 ± 0.015 | 1.64 ± 0.031 | 0.693 ± 0.025 |
| GCUGUCACCGGUGUAUUACCCUAGUGGUCGACCGGUCUGAUGAGUCUGGACGGAGACGAAACAGC [GGACGG] | 0.346 ± 0.049 | 1.81 ± 0.035 | 1.42 ± 0.016 | 0.584 ± 0.054 |
| GCUGUCACCGGUGUAUUACCCUAGUGGUCGACCGGUCUGAUGAGUCUCGACGGAGACGAAACAGC [CGACGG] | 0.267 ± 0.083 | 1.83 ± 0.035 | 1.413 ± 0.0057 | 0.596 ± 0.078 |
| GCUGUCACCGGUGUAUUACCCUAGUGGUCGACCGGUCUGAUGAGUCUCGACGCAGACGAAACAGC [CGACGC] | -0.246 ± 0.0073 | 1.919 ± 0.0071 | 1.87 ± 0.019 | -0.157 ± 0.067 |
| GCUGUCACCGGUGUAUUACCCUAGUGGUCGACCGGUCUGAUGAGUCUGGACAAAGACGAAACAGC [GGACAA] | 0.0221 ± 0.17 | 1.89 ± 0.02 | 1.76 ± 0.028 | 0.0902 ± 0.07 |
| GCUGUCACCGGUGUAUUACCCUAGUGGUCGACCGGUCUGAUGAGUCUGGACACAGACGAAACAGC [GGACAC] | 0.562 ± 0.091 | 1.9 ± 0.097 | 1.71 ± 0.022 | 0.59 ± 0.014 |
| GCUGUCACCGGUGUAUUACCCUAGUGGUCGACCGGUCUGAUGAGUCUCGACACAGACGAAACAGC [CGACAC] | -0.0307 ± 0.0086 | 1.938 ± 0.0063 | 1.75 ± 0.039 | 0.154 ± 0.057 |
| GCUGUCACCGGUGUAUUACCCUAGUGGUCGACCGGUCUGAUGAGUCUAGACAGAGACGAAACAGC [AGACAG] | 0.418 ± 0.037 | 1.82 ± 0.053 | 1.391 ± 0.011 | 0.565 ± 0.052 |
| GCUGUCACCGGUGUAUUACCCUAGUGGUCGACCGGUCUGAUGAGUCUAGACAAAGACGAAACAGC [AGACAA] | 0.177 ± 0.019 | 1.89 ± 0.049 | 1.74 ± 0.053 | 0.0293 ± 0.022 |
| GCUGUCACCGGUGUAUUACCCUAGUGGUCGACCGGUCUGAUGAGUCUAGACAUAGACGAAACAGC [AGACAU] | 0.502 ± 0.023 | 1.907 ± 0.0038 | 1.755 ± 0.0087 | 0.538 ± 0.036 |
| GCUGUCACCGGUGUAUUACCCUAGUGGUCGACCGGUCUGAUGAGUCUUGACACAGACGAAACAGC [UGACAC] | 0.161 ± 0.17 | 1.93 ± 0.03 | 1.84 ± 0.064 | 0.132 ± 0.059 |
| GCUGUCACCGGUGUAUUACCCUAGUGGUCGACCGGUCUGAUGAGUCUUGACAGAGACGAAACAGC [UGACAG] | 0.5894 ± 0.0055 | 1.93 ± 0.043 | 1.66 ± 0.064 | 0.556 ± 0.022 |
